tested on: Escherichia coli TOP10; experiment: shrunken log2 fold change of peptide-encoding DNA abundance (4.5 h post-induction vs induction); higher = less antimicrobial activity (less host growth inhibition); conditions: time post-induction: 4.5 h; library: site-saturation at positions 5, 18, 19, 20
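Also: peptides expressed intracellularly from a pBAD plasmid library in pooled LB shake-flask culture, induced with 0.3% L-arabinose, DNA abundance read by NGS, three biological replicates, DESeq2 with apeglm shrinkage.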

| Sequence | shrunken log2 fold change |
| --- | --- |
| RRIRFRPPRLPRPRPRPIDKPRP | -0.499 |
| RRIRWRPPRLPRPRPRPCNNPRP | 0.00194 |
| RRIRHRPPRLPRPRPRPHQGPRP | -0.00197 |
| RRIRKRPPRLPRPRPRPIKDPRP | -0.00059 |
| RRIRIRPPRLPRPRPRPMPKPRP | -0.0638 |
| RRIRNRPPRLPRPRPRPPEPPRP | 0.184 |
| RRIRSRPPRLPRPRPRPDSLPRP | 0.00187 |
| RRIRGRPPRLPRPRPRPAAEPRP | 2.52 |
| RRIRHRPPRLPRPRPRPWYVPRP | 0.00296 |
| RRIRIRPPRLPRPRPRPALNPRP | -0.484 |
| RRIRMRPPRLPRPRPRPQQEPRP | 0.137 |
| RRIRWRPPRLPRPRPRPSADPRP | 0.115 |
| RRIRKRPPRLPRPRPRPPQGPRP | 0.469 |
| RRIRIRPPRLPRPRPRPFVHPRP | -0.498 |
| RRIRTRPPRLPRPRPRPQYHPRP | -0.329 |
| RRIRNRPPRLPRPRPRPQIQPRP | -0.214 |
| RRIRMRPPRLPRPRPRPALFPRP | 0.356 |
| RRIRERPPRLPRPRPRPQHRPRP | 0.152 |
| RRIRDRPPRLPRPRPRPPPHPRP | 0.623 |
| RRIRPRPPRLPRPRPRPMVYPRP | -0.228 |
| RRIRPRPPRLPRPRPRPHQQPRP | -0.14 |
| RRIRKRPPRLPRPRPRPTPYPRP | 0.235 |
| RRIRWRPPRLPRPRPRPQKTPRP | 0.119 |
| RRIRNRPPRLPRPRPRPVNFPRP | -0.157 |
| RRIRIRPPRLPRPRPRPIYNPRP | -1.18 |

| Sequence | shrunken log2 fold change |
| --- | --- |
| RRIRKRPPRLPRPRPRPYLNPRP | -0.362 |
| RRIRIRPPRLPRPRPRPVGTPRP | -0.126 |
| RRIRRRPPRLPRPRPRPKQFPRP | -0.00581 |
| RRIRYRPPRLPRPRPRPYRRPRP | -0.00141 |
| RRIRPRPPRLPRPRPRPIIAPRP | -0.681 |
| RRIRTRPPRLPRPRPRPCFVPRP | -0.454 |
| RRIRYRPPRLPRPRPRPMTQPRP | -0.0104 |
| RRIRWRPPRLPRPRPRPMMSPRP | 0.19 |
| RRIRIRPPRLPRPRPRPEHFPRP | -0.0163 |
| RRIRSRPPRLPRPRPRPHKFPRP | 0.00286 |
| RRIRIRPPRLPRPRPRPKCAPRP | 0.0106 |
| RRIRHRPPRLPRPRPRPSCEPRP | -0.569 |
| RRIRWRPPRLPRPRPRPRASPRP | 0.852 |
| RRIRFRPPRLPRPRPRPMSFPRP | -0.193 |
| RRIRRRPPRLPRPRPRPYVWPRP | -0.216 |
| RRIRMRPPRLPRPRPRPLMHPRP | 0.341 |
| RRIRVRPPRLPRPRPRPIFAPRP | 0.231 |
| RRIRDRPPRLPRPRPRPIWRPRP | 0.235 |
| RRIRNRPPRLPRPRPRPTSHPRP | -0.0916 |
| RRIRWRPPRLPRPRPRPIHPPRP | -0.117 |
| RRIRSRPPRLPRPRPRPHRLPRP | -0.288 |
| RRIRIRPPRLPRPRPRPTSWPRP | 0.0769 |
| RRIRVRPPRLPRPRPRPVQCPRP | -0.0156 |
| RRIRNRPPRLPRPRPRPGQGPRP | -0.0357 |
| RRIRTRPPRLPRPRPRPFMKPRP | -0.661 |

| Sequence | shrunken log2 fold change |
| --- | --- |
| RRIRNRPPRLPRPRPRPCDWPRP | -0.0698 |
| RRIRQRPPRLPRPRPRPQTDPRP | 0.00346 |
| RRIRYRPPRLPRPRPRPHRFPRP | 0.0207 |
| RRIRCRPPRLPRPRPRPLWWPRP | 0.204 |
| RRIRFRPPRLPRPRPRPQGVPRP | 0.103 |
| RRIRIRPPRLPRPRPRPEMWPRP | 0.0226 |
| RRIRTRPPRLPRPRPRPISVPRP | -0.0512 |
| RRIRDRPPRLPRPRPRPDISPRP | 0.0588 |
| RRIRKRPPRLPRPRPRPWTPPRP | 0.246 |
| RRIRCRPPRLPRPRPRPISKPRP | -0.37 |
| RRIRLRPPRLPRPRPRPHPIPRP | 0.0174 |
| RRIRKRPPRLPRPRPRPILQPRP | 0.0319 |
| RRIRNRPPRLPRPRPRPSWLPRP | -0.361 |
| RRIRTRPPRLPRPRPRPSAFPRP | -0.0245 |
| RRIRYRPPRLPRPRPRPAWGPRP | 0.0852 |
| RRIRERPPRLPRPRPRPINRPRP | -0.017 |
| RRIRPRPPRLPRPRPRPEKVPRP | -0.127 |
| RRIRFRPPRLPRPRPRPGNAPRP | 0.0998 |
| RRIRPRPPRLPRPRPRPWCVPRP | -0.133 |
| RRIRMRPPRLPRPRPRPKIPPRP | 0.365 |
| RRIRFRPPRLPRPRPRPNKGPRP | -0.606 |
| RRIRGRPPRLPRPRPRPWVSPRP | -0.0322 |
| RRIRQRPPRLPRPRPRPAWDPRP | 1.54 |
| RRIRQRPPRLPRPRPRPKMNPRP | -0.328 |
| RRIRMRPPRLPRPRPRPQYDPRP | -0.204 |

| Sequence | shrunken log2 fold change |
| --- | --- |
| RRIRDRPPRLPRPRPRPLHEPRP | -0.129 |
| RRIRERPPRLPRPRPRPDDNPRP | 0.0486 |
| RRIRTRPPRLPRPRPRPFEMPRP | -0.376 |
| RRIRCRPPRLPRPRPRPWYDPRP | -0.0194 |
| RRIRDRPPRLPRPRPRPFKMPRP | -0.0853 |
| RRIRGRPPRLPRPRPRPIIYPRP | 0.0582 |
| RRIRLRPPRLPRPRPRPEIDPRP | -0.0103 |
| RRIRVRPPRLPRPRPRPSTKPRP | -0.213 |
| RRIRGRPPRLPRPRPRPKWRPRP | 0.795 |
| RRIRHRPPRLPRPRPRPQDYPRP | -0.101 |
| RRIRLRPPRLPRPRPRPQVFPRP | 0.502 |
| RRIRGRPPRLPRPRPRPNCLPRP | 0.191 |
| RRIRMRPPRLPRPRPRPGMVPRP | 0.263 |
| RRIRVRPPRLPRPRPRPHFRPRP | -0.0776 |
| RRIRVRPPRLPRPRPRPVMRPRP | 0.269 |
| RRIRVRPPRLPRPRPRPTGYPRP | -0.239 |
| RRIRQRPPRLPRPRPRPLATPRP | 0.0953 |
| RRIRRRPPRLPRPRPRPQQSPRP | 0.273 |
| RRIRSRPPRLPRPRPRPLVTPRP | 0.0214 |
| RRIRIRPPRLPRPRPRPLIEPRP | -0.475 |
| RRIRGRPPRLPRPRPRPINCPRP | -0.0247 |
| RRIRGRPPRLPRPRPRPMMIPRP | -0.0387 |
| RRIRHRPPRLPRPRPRPETWPRP | -0.238 |
| RRIRKRPPRLPRPRPRPHVGPRP | 0.176 |
| RRIRMRPPRLPRPRPRPMKHPRP | 0.0546 |

| Sequence | shrunken log2 fold change |
| --- | --- |
| RRIRIRPPRLPRPRPRPMLEPRP | 0.0741 |
| RRIRRRPPRLPRPRPRPYSNPRP | -0.414 |
| RRIRHRPPRLPRPRPRPTASPRP | -0.131 |
| RRIRFRPPRLPRPRPRPTHCPRP | -0.0892 |
| RRIRGRPPRLPRPRPRPCRGPRP | -0.0404 |
| RRIRERPPRLPRPRPRPFWWPRP | 0.239 |
| RRIRLRPPRLPRPRPRPGYEPRP | -0.11 |
| RRIRNRPPRLPRPRPRPLTAPRP | -0.221 |
| RRIRHRPPRLPRPRPRPMKLPRP | -0.254 |
| RRIRKRPPRLPRPRPRPCLIPRP | -0.36 |
| RRIRVRPPRLPRPRPRPHNDPRP | -0.318 |
| RRIRSRPPRLPRPRPRPQPRPRP | 0.285 |
| RRIRNRPPRLPRPRPRPITAPRP | -0.132 |
| RRIRTRPPRLPRPRPRPTATPRP | 0.286 |
| RRIRPRPPRLPRPRPRPWLLPRP | -0.111 |
| RRIRDRPPRLPRPRPRPQCEPRP | 0.0364 |
| RRIRQRPPRLPRPRPRPDLFPRP | -0.0321 |
| RRIRRRPPRLPRPRPRPEDCPRP | -0.0482 |
| RRIRTRPPRLPRPRPRPHWPPRP | -0.078 |
| RRIRIRPPRLPRPRPRPPWEPRP | -0.21 |
| RRIRWRPPRLPRPRPRPYTWPRP | -0.397 |
| RRIRTRPPRLPRPRPRPSVSPRP | -0.386 |
| RRIRRRPPRLPRPRPRPAETPRP | -0.0645 |
| RRIRRRPPRLPRPRPRPRTHPRP | 0.108 |
| RRIRLRPPRLPRPRPRPCPGPRP | -0.219 |

| Sequence | shrunken log2 fold change |
| --- | --- |
| RRIRSRPPRLPRPRPRPWSVPRP | -0.305 |
| RRIRRRPPRLPRPRPRPFWGPRP | 0.463 |
| RRIRNRPPRLPRPRPRPDMAPRP | -0.0639 |
| RRIRPRPPRLPRPRPRPCLNPRP | -0.35 |
| RRIRDRPPRLPRPRPRPEAGPRP | 0.67 |
| RRIRLRPPRLPRPRPRPFWSPRP | -0.162 |
| RRIRARPPRLPRPRPRPDHSPRP | 0.0675 |
| RRIRPRPPRLPRPRPRPFSEPRP | -0.436 |
| RRIRKRPPRLPRPRPRPRQHPRP | 0.499 |
| RRIRERPPRLPRPRPRPCDQPRP | 0.0916 |
| RRIRLRPPRLPRPRPRPNMTPRP | -0.0555 |
| RRIRRRPPRLPRPRPRPEEVPRP | 0.0988 |
| RRIRDRPPRLPRPRPRPVVKPRP | 0.0734 |
| RRIRFRPPRLPRPRPRPHCSPRP | 0.0308 |
| RRIRFRPPRLPRPRPRPLENPRP | -0.0435 |
| RRIRDRPPRLPRPRPRPPQVPRP | 0.272 |
| RRIRGRPPRLPRPRPRPLEFPRP | 0.319 |
| RRIRKRPPRLPRPRPRPQHFPRP | 0.0698 |
| RRIRPRPPRLPRPRPRPESKPRP | 0.224 |
| RRIRDRPPRLPRPRPRPQKSPRP | -0.11 |
| RRIRTRPPRLPRPRPRPVEAPRP | 0.0918 |
| RRIRQRPPRLPRPRPRPHETPRP | -0.0223 |
| RRIRIRPPRLPRPRPRPTGGPRP | -0.00471 |
| RRIRMRPPRLPRPRPRPEVGPRP | 2.56 |
| RRIRHRPPRLPRPRPRPDIWPRP | -0.11 |
